Experimental data published in publication PMC8748612, “Maximizing response to intratumoral immunotherapy in mice by tuning local retention” (Nature Communications, 2022).

How the values were obtained:
[1] = target: T1, Collagen I (Gibco), coated on 96-well plates (UniProt P02454 152-1207; P02466 86-1125); experiment: ELISA; Collagen I (Gibco) coated 96-well plates; LAIR-fusion proteins in PBSTA (PBS, 0.1% BSA, 0.05% Tween-20) for 4 h at room temperature; detected with HRP-conjugated polyclonal anti-6xHis; settings: both partners purified
T1 construct: collagen type I, alpha-1(I) chain; collagen type I, alpha-2(I) chain; the two chains and rat as species are surmised; also called native collagen; collagen type I; source: bought: Gibco (collagen I coated 96-well plates)
T1 sequence (P02454 152-1207, chain 1 of 2): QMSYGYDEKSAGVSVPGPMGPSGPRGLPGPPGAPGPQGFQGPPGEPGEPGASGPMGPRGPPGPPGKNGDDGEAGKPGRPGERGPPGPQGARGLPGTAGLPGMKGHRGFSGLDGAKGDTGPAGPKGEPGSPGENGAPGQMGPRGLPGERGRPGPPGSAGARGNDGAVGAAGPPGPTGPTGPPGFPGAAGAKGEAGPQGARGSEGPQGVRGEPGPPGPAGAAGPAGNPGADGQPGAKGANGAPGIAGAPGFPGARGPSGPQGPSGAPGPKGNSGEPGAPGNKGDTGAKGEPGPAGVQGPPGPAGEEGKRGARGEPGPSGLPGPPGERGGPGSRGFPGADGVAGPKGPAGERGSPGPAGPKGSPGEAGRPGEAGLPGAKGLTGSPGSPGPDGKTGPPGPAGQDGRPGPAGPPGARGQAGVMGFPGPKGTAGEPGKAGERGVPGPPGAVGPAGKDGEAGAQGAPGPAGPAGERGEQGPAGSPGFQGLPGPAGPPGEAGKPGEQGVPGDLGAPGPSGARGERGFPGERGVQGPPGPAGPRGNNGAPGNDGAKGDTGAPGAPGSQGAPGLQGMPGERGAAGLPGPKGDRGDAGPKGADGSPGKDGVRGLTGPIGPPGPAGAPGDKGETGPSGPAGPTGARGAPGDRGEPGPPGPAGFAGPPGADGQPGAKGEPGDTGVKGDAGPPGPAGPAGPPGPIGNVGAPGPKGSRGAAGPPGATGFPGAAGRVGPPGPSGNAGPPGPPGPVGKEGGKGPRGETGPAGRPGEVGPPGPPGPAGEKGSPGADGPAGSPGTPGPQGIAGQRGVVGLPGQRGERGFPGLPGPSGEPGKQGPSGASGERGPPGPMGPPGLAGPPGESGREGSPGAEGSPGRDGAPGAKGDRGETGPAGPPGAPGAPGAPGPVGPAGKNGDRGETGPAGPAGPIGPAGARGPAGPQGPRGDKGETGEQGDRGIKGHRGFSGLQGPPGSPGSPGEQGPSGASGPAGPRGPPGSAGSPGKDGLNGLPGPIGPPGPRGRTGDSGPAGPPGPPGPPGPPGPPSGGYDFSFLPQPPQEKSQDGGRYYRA
T1 sequence (P02466 86-1125, chain 2 of 2): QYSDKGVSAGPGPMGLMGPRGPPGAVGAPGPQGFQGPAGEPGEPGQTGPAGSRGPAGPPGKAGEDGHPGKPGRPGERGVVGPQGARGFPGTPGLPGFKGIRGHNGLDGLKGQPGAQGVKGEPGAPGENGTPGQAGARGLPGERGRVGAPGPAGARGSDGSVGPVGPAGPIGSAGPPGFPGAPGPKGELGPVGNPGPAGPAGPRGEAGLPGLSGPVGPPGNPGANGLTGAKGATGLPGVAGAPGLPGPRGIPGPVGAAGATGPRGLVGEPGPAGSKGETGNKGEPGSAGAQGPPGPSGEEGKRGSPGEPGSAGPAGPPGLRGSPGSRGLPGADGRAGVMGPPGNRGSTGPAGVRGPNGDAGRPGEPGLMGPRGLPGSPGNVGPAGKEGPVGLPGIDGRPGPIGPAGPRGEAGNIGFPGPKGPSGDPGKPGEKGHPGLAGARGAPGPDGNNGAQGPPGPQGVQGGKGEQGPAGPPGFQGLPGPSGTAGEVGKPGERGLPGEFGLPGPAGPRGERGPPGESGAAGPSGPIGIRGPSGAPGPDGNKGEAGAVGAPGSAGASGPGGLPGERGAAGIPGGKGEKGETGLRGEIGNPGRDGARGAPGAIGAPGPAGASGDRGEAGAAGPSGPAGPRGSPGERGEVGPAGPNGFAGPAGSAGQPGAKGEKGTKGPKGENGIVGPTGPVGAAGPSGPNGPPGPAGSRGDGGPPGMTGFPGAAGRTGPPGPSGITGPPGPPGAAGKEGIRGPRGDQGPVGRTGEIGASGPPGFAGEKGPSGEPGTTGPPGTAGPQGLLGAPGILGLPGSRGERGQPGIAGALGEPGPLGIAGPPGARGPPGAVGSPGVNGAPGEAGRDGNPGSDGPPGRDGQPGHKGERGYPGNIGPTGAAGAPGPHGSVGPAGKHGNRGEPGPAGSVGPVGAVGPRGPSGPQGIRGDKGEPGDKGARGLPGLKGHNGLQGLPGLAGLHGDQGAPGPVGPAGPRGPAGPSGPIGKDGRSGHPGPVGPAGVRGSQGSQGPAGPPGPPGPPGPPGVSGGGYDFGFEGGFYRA

[2] = target: T2, alternatively spliced extra-domain B (EIIIB) domain of fibronectin (Mus musculus (assumed; murine B16F10 …, UniProt P11276); experiment: not stated; Kd for EIIIB printed in the discussion; Supplementary Fig. 18b is pointed to
T2 construct: fibronectin, alternatively spliced EIIIB (extra-domain B) domain; also called FN-EIIIB

B1: LAIRx-LAIRx-MSA^H464Q-IL2-his (other)
chain: QEGSLPDITIFPNSSLMISQGTFVTVVCSYSDKHDLYNMVALAKDGSTFMEKSTEPYKTEDEFEIGPVNETITGHYSCIYSKGITWSERSKTLELKVIKENVIQTPAPGPTSDTSWLKTYSIYQEGSLPDITIFPNSSLMISQGTFVTVVCSYSDKHDLYNMVALAKDGSTFMEKSTEPYKTEDEFEIGPVNETITGHYSCIYSKGITWSERSKTLELKVIKENVIQTPAPGPTSDTSWLKTYSIYEAHKSEIAHRYNDLGEQHFKGLVLIAFSQYLQKCSYDEHAKLVQEVTDFAKTCVADESAANCDKSLHTLFGDKLCAIPNLRENYGELADCCTKQEPERNECFLQHKDDNPSLPPFERPEAEAMCTSFKENPTTFMGHYLHEVARRHPYFYAPELLYYAEQYNEILTQCCAEADKESCLTPKLDGVKEKALVSSVRQRMKCSSMQKFGERAFKAWAVARLSQTFPNADFAEITKLATDLTKVNKECCHGDLLECADDRAELAKYMCENQATISSKLQTCCDKPLLKKAHCLSEVEHDTMPADLPAIAADFVEDQEVCKNYAEAKDVFLGTFLYEYSRRHPDYSVSLLLRLAKKYEATLEKCCAEANPPACYGTVLAEFQPLVEEPKNLVKTNCDLYEKLGEYGFQNAILVRYTQKAPQVSTPTLVEAARNLGRVGTKCCTLPEDQRLPCVEDYLSAILNRVCLLQEKTPVSEHVTKCCSGSLVERRPCFSALTVDETYVPKEFKAETFTFHSDICTLPEKEKQIKKQTALAELVKHKPKATAEQLKTVMDDFAQFLDTCCKAADKDTCFSTEGPNLVTRCKDALAAPTSSSTSSSTAEAQQQQQQQQQQQQHLEQLLMDLQELLSRMENYRNLKLPRMLTFKFYLPKQATELKDLQCLEDELGPLRHVLDLTQSKSFQLEDAENFISNIRVTVVKLKGSDNTFECQFDDESATVVDFLRRWIAFCQSIISTSPQ
- Kd [1]: > 1000 nM

B2: NJB2-MSA^H464Q-IL2 (VHH)
VHH: QVQLVETGGGLVQAGGSLRLSCAASGSTFSHNAGGWYRQAPEKQRELVAGISSDGNINYADSVKDRFTISRDNASNTMYLQMNNLKPEDTAVYVCNIRGSYGNTYYSRWGQGTQVTVSS
notes: nanobody NJB2 (15 kD); mouse serum albumin (MSA) with H464Q; interleukin-2 (IL-2); 98 kD; MSA^H464Q incorporated between the nanobody and IL-2; source: suspension HEK293, transfected, purified
- Kd [2]: 1 nM
